Measured values from PMC3923779, “Iron Acquisition in Bacillus cereus: The Roles of IlsA and Bacillibactin in Exogenous Ferritin Iron Mobilization” (PLoS Pathogens, 2014).

B1: recombinant mouse H-chain ferritin (natural protein, UniProt P09528 1-182, looked up)
chain: MTTASPSQVRQNYHQDAEAAINRQINLELYASYVYLSMSCYFDRDDVALKNFAKYFLHQSHEEREHAEKLMKLQNQRGGRIFLQDIKKPDRDDWESGLNAMECALHLEKSVNQSLLELHKLATDKNDPHLCDFIETYYLSEQVKSIKELGDHVTNLRKMGAPEAGMAEYLFDKHTLGHGDES
notes: mouse ferritin H-chain, recombinant homopolymer; also called MoHF; recombinant mouse homopolymer H-chain; copies: 24
B2: IlsA (Iron-regulated leucine rich surface protein type A), recombinant, without signal peptide (natural protein, Bacillus cereus strain ATCC14579, UniProt Q81G77 29-760, looked up)
chain: ALKVEANQSVAAASDRTYDTEIKIYKDQKDEPSMVSQYIKDPKVTIAAGKKIVTVTMQDSDYFQYLRIEDKNQPGVFHDVKVLSEDKRKNGTKVVQFEIGEFEKKHNMQMHILIPAIGYDHKYQVQFEIKDPTVGNKETEKPDDNSNSGNTETDNPVDNQNMITDNKLRELVNKKVFNRKDLNTPITKEDLLQVKDLFLNTNEILDYSALKYMPNLKSLTVANAKIKDPSFFANLKQLNHLALRGNEFADVTPLVKMDNLESLDLSNNKITNVAPLTEMKNVKSLFLSGNQIEDVTALAKMEQLDYLNLANNKITNVAPLSNLKNVTYLTLAGNQIEDIKPLYTLPLKDLVLTRNKVKDLSGIDQLNQLQELWIGKNEITDVTPLSKMTQLKILNLPNNELKDITPLSSLVNLQKLDLEANYISDLSPVSNLKKLVFLSFVANEIRDVRPVIELSKTAYINVQNQKVFLEETEVNKEVKVPIYEKDGEISTKIRLKSDNGTYSNGVVKWSTPGEKVYEFGVKDPFADTGIFFTGSVIQNVVESKDGNTSKEDEKTEVVEFKDVPKGHWSEEAINYLAKEKLFIGYGNGEFGFGDNITRGQVALLIQRYLKLENNLEQKTAFTDTKGNMYETAIDAVVQAGIMTGYGNGMFRPDGVLTRYEMSVVLQRVFQLKENENSAENFKDVPNGHWAKGYVKALVDNKISKGDGEGNFLGDNFVTREQYAQFLYNAIKK
notes: IlsA of Bacillus cereus strain ATCC14579, NCBI gene number Bc1331; Holo form (hemin added until saturation of 80%) in the ITC; also called Holo-IlsA; full-length IlsA; source: E. coli C600 ΔhemA, purified (Bulk GST Purification Module, eluted with PreScission Protease); produced in apo-form, hemin added to reconstitute the holo-protein

What was measured:
Assay in all cases: ITC; 16 injections of 3 µl of 229 µM holo-IlsA into the cell with 1 µM ferritin; 25°C; 50 mM Tris-HCl pH 7, 150 mM NaCl, 1 mM EDTA, 1 mM DTT; model of one set of independent binding sites; apparent values
Details in all cases: both partners purified
[1] = target: B2
[2] = target: B1
[3] = target: T1, recombinant human H-chain ferritin (human, UniProt P02794 1-183)
T1 construct: human ferritin H-chain, recombinant homopolymer of 24 H-subunits; loaded with 500 Fe/shell in the iron release assay; also called HuHF; holoHuHF; copies: 24

[4] = target: T2, recombinant human heteropolymer H/L ferritin (human, UniProt P02794 1-183; P02792 1-175)
T2 construct: human ferritin H-chain in the recombinant heteropolymer; human ferritin L-chain in the recombinant heteropolymer; The results print ∼20 H-chains and 4 L-chains; also called HuH/LF; recombinant heteropolymer ferritin; copies: 20 + 4

[5] = target: T3, recombinant human L-chain ferritin (human, UniProt P02792 1-175)
T3 construct: human ferritin L-chain, recombinant homopolymer of 24 L-subunits; also called HuLF; recombinant human homopolymer L-chain; copies: 24
T3 sequence (P02792 whole entry): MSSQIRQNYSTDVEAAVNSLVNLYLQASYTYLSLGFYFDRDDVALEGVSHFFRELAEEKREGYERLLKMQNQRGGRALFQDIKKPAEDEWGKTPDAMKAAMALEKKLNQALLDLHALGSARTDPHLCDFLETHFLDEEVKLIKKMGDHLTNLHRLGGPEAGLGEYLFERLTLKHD

T1 sequence (P02794 whole entry): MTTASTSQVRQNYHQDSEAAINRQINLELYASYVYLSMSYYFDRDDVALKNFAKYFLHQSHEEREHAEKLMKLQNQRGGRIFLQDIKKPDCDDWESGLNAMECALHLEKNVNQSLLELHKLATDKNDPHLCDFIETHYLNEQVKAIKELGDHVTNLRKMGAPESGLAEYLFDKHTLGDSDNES
T2 sequence (P02794 whole entry, chain 1 of 2): as the sequence (P02794 whole entry) above
T2 sequence (P02792 whole entry, chain 2 of 2): as the sequence (P02792 whole entry) above

Binder: B1
- Ka [1]: 2.07e+06 M⁻¹

Binder: B2
- dH [2]: -0.801 kcal/mol
- stoichiometry N [2]: 24.9 IlsA per ferritin shell
- dH [3]: -0.982 kcal/mol
- stoichiometry N [3]: 25.2 IlsA per ferritin shell
- dH [4]: -2.08 kcal/mol
- stoichiometry N [4]: 23.8 IlsA per ferritin shell
- dH [5]: -2.08 kcal/mol
- stoichiometry N [5]: 23.9 IlsA per ferritin shell
